Reference: PMC4841250, “Structure and stability of recombinant bovine odorant-binding protein: I. Design and analysis of monomeric mutants” (PeerJ, 2016)

Target: the molecule itself
Assay: SEC; gel filtration on Superdex-75 PC 3.2/30, buffered solution (20 mM Na-phosphate, pH 7.8) without OCT; calibrated with protein standards; monomer and dimer

B1: recombinant wild type bovine odorant-binding protein (natural protein)
chain: AQEEEAEQNLSELSGPWRTVYIGSTNPEKIQENGPFRTYFRELVFDDEKGTVDFYFSVKRDGKWKNVHVKATKQDDGTYVADYEGQNVFKIVSLSRTHLVAHNINVDKHGQTTELTELFVKLNVEDEDLEKFWKLTEDKGIDKKNVVNFLENEDHPHPE
notes: also called bOBP; bOBPwt; source: E. coli BL21(DE3), purified (Ni-agarose, HisGraviTrap columns)
  stoichiometry N: 2
